{
  "source": "paper PMC8287685",
  "about": "“Archaeal Orc1 protein interacts with T-rich single-stranded DNA”",
  "binders": {"B1": {"name": "polyT(60) (ssDNA)", "DNA": "TTTTTTTTTTTTTTTTTTTTTTTTTTTTTTTTTTTTTTTTTTTTTTTTTTTTTTTTTTTT"}, "B2": {"name": "L bottom (ssDNA)", "DNA": "TTTAAAACTGGGTTTTTGTATCATTATATTGGCATTCTTCAAGAGCACTATTCGGGAGGAGTATACGCTTC"}, "B3": {"name": "polyA(70) (ssDNA)", "DNA": "AAAAAAAAAAAAAAAAAAAAAAAAAAAAAAAAAAAAAAAAAAAAAAAAAAAAAAAAAAAAAAAAAAAAAA"}, "B4": {"name": "polyT(70) (ssDNA)", "DNA": "TTTTTTTTTTTTTTTTTTTTTTTTTTTTTTTTTTTTTTTTTTTTTTTTTTTTTTTTTTTTTTTTTTTTTT"}, "B5": {"name": "polyA(60) (ssDNA)", "DNA": "AAAAAAAAAAAAAAAAAAAAAAAAAAAAAAAAAAAAAAAAAAAAAAAAAAAAAAAAAAAA"}, "B6": {"name": "R bottom (ssDNA)", "DNA": "TCAGGCTGTGCAGTTCTGGATTATAGTGTGTCTTTGTTTGTTTCTAGCTTGATTTG"}, "B7": {"name": "R top (ssDNA)", "DNA": "CAAATCAAGCTAGAAACAAACAAAGACACACTATAATCCAGAACTGCACAGCCTGA"}},
  "key": {"[1]": {"biological_target": "T1, ApOrc1 (Orc1-1) (Aeropyrum pernix, UniProt Q9YEV6 1-395)", "T1 sequence": "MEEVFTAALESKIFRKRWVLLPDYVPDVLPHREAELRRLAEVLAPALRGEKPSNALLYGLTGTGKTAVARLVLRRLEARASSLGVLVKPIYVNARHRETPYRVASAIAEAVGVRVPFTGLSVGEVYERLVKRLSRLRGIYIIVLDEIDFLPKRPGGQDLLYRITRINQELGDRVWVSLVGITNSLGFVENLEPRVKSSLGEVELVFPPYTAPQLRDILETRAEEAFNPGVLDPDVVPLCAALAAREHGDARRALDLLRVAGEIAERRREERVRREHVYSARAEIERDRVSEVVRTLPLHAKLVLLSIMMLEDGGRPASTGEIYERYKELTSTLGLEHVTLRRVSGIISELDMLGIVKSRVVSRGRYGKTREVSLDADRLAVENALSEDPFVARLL", "assay": "SPR; SPR: HBS-EP + 10 mM MgCl2, 2 mM ATP; BLI (room temperature) and MST: EDBS (25 mM Tris-HCl pH 8, 4% sucrose, 4 mM DTT, 80 ug/mL BSA, 10 mM Mg(OAc)2, 2 mM [truncated]); EMSA: 40 mM HEPES-KOH pH 8, 25 mM [truncated], 5% PAGE in TBE", "conditions": "protein: recombinant; label: Biotin-14-dCTP by TdT"}, "[2]": {"biological_target": "T1, ApOrc1 (Orc1-1)", "assay": "BLI; higher than L top; SPR: HBS-EP + 10 mM MgCl2, 2 mM ATP; BLI (room temperature) and MST: EDBS (25 mM Tris-HCl pH 8, 4% sucrose, 4 mM DTT, 80 ug/mL BSA, 10 mM Mg(OAc)2, 2 mM [truncated]); EMSA: 40 mM HEPES-KOH pH 8, 25 mM [truncated], 5% PAGE in TBE", "conditions": "protein: recombinant; label: 5' biotin"}, "[3]": {"biological_target": "T1, ApOrc1 (Orc1-1)", "assay": "MST; SPR: HBS-EP + 10 mM MgCl2, 2 mM ATP; BLI (room temperature) and MST: EDBS (25 mM Tris-HCl pH 8, 4% sucrose, 4 mM DTT, 80 ug/mL BSA, 10 mM Mg(OAc)2, 2 mM [truncated]); EMSA: 40 mM HEPES-KOH pH 8, 25 mM [truncated], 5% PAGE in TBE", "conditions": "protein: recombinant; label: 5' Cy3"}, "[4]": {"biological_target": "T2, SSB (Escherichia coli, UniProt P0AGE0 1-178)", "T2 sequence (P0AGE0 whole entry, the tested form may be a part)": "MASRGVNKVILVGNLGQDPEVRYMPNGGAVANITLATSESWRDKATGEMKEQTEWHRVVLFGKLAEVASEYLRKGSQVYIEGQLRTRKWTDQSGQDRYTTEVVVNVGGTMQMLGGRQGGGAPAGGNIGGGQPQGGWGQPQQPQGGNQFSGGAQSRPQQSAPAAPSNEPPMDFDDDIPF", "assay": "SPR; no significant difference from R top; SPR: HBS-EP + 10 mM MgCl2, 2 mM ATP; BLI (room temperature) and MST: EDBS (25 mM Tris-HCl pH 8, 4% sucrose, 4 mM DTT, 80 ug/mL BSA, 10 mM Mg(OAc)2, 2 mM [truncated]); EMSA: 40 mM HEPES-KOH pH 8, 25 mM [truncated], 5% PAGE in TBE", "conditions": "chain copies: 4; label: 5' biotin (BLI, SPR); fluorescent (MST)"}, "[5]": {"biological_target": "T1, ApOrc1 (Orc1-1)", "assay": "SPR; ATP, Mg2+; SPR: HBS-EP + 10 mM MgCl2, 2 mM ATP; BLI (room temperature) and MST: EDBS (25 mM Tris-HCl pH 8, 4% sucrose, 4 mM DTT, 80 ug/mL BSA, 10 mM Mg(OAc)2, 2 mM [truncated]); EMSA: 40 mM HEPES-KOH pH 8, 25 mM [truncated], 5% PAGE in TBE", "conditions": "protein: recombinant; label: 5' biotin (BLI, SPR); fluorescent (MST)"}, "[6]": {"biological_target": "T1, ApOrc1 (Orc1-1)", "assay": "SPR; ATP, Mg2+; SPR: HBS-EP + 10 mM MgCl2, 2 mM ATP; BLI (room temperature) and MST: EDBS (25 mM Tris-HCl pH 8, 4% sucrose, 4 mM DTT, 80 ug/mL BSA, 10 mM Mg(OAc)2, 2 mM [truncated]); EMSA: 40 mM HEPES-KOH pH 8, 25 mM [truncated], 5% PAGE in TBE", "conditions": "protein: recombinant; label: 5' biotin (BLI, SPR); fluorescent (MST)", "remark": "listed apart in the source"}, "[7]": {"biological_target": "T2, SSB", "assay": "SPR; no significant difference from R bottom; SPR: HBS-EP + 10 mM MgCl2, 2 mM ATP; BLI (room temperature) and MST: EDBS (25 mM Tris-HCl pH 8, 4% sucrose, 4 mM DTT, 80 ug/mL BSA, 10 mM Mg(OAc)2, 2 mM [truncated]); EMSA: 40 mM HEPES-KOH pH 8, 25 mM [truncated], 5% PAGE in TBE", "conditions": "chain copies: 4; label: 5' biotin (BLI, SPR); fluorescent (MST)"}, "[8]": {"biological_target": "T1, ApOrc1 (Orc1-1)", "assay": "SPR; highest response; SPR: HBS-EP + 10 mM MgCl2, 2 mM ATP; BLI (room temperature) and MST: EDBS (25 mM Tris-HCl pH 8, 4% sucrose, 4 mM DTT, 80 ug/mL BSA, 10 mM Mg(OAc)2, 2 mM [truncated]); EMSA: 40 mM HEPES-KOH pH 8, 25 mM [truncated], 5% PAGE in TBE", "conditions": "protein: recombinant; label: 5' biotin"}, "[9]": {"biological_target": "T1, ApOrc1 (Orc1-1)", "assay": "BLI; among the highest; SPR: HBS-EP + 10 mM MgCl2, 2 mM ATP; BLI (room temperature) and MST: EDBS (25 mM Tris-HCl pH 8, 4% sucrose, 4 mM DTT, 80 ug/mL BSA, 10 mM Mg(OAc)2, 2 mM [truncated]); EMSA: 40 mM HEPES-KOH pH 8, 25 mM [truncated], 5% PAGE in TBE", "conditions": "protein: recombinant; label: 5' biotin"}},
  "data": [
    {"binder": "B1", "values": [
      {"measurement": "binding result", "setting": "[1]", "value": "binds"}
    ]},
    {"binder": "B2", "values": [
      {"measurement": "binding result", "setting": "[2]", "value": "binds"}
    ]},
    {"binder": "B3", "values": [
      {"measurement": "binding result", "setting": "[3]", "value": "no binding"}
    ]},
    {"binder": "B4", "values": [
      {"measurement": "binding result", "setting": "[3]", "value": "binds"}
    ]},
    {"binder": "B5", "values": [
      {"measurement": "binding result", "setting": "[1]", "value": "no binding"}
    ]},
    {"binder": "B6", "values": [
      {"measurement": "binding result", "setting": "[4]", "value": "binds"},
      {"measurement": "binding signal", "setting": "[5]", "value": "~3 fold SPR response vs R top"}
    ]},
    {"binder": "B7", "values": [
      {"measurement": "binding signal", "setting": "[6]", "value": "~0.33 fold SPR response vs R bottom (stated as R bottom 3 times higher)"},
      {"measurement": "binding result", "setting": "[7]", "value": "binds"}
    ]},
    {"binder": "TGTGTCTTTGTTTGTTTCTAGCTTGATTTG (ssDNA)", "note": "[R1 bottom]", "values": [
      {"measurement": "binding result", "setting": "[8]", "value": "binds"}
    ]},
    {"binder": "TTTAAAACTGGGTTTTTGTATCATTATATTGGCAT (ssDNA)", "note": "[L2 bottom]", "values": [
      {"measurement": "binding result", "setting": "[9]", "value": "binds"}
    ]}
  ]
}
